Laboratory results from patent publication US12365732 (23ANDME, dated 2025).

T1: hu-CD96 isoform 1 on HEK293T cells (human, UniProt P40200 22-585)
T1 construct: Origene RC213845, transient expression; also called HEK293T-CD96 (iso1)
T1 sequence: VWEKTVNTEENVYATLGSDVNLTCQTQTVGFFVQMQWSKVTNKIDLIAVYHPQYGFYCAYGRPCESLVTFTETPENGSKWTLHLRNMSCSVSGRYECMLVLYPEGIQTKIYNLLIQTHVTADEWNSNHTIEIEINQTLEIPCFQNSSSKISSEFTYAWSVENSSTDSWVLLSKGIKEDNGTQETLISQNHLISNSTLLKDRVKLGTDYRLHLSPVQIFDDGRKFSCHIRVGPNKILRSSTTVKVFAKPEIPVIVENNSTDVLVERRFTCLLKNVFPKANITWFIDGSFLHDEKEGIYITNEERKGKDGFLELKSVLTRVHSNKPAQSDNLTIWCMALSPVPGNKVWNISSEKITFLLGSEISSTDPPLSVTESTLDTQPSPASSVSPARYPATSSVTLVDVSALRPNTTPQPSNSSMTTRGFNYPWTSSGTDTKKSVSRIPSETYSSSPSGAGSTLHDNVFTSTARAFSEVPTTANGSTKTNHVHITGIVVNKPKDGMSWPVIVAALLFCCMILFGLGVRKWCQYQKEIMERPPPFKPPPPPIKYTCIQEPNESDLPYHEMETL

T2: hu-CD96 (soluble, isoform 2 extracellular domain) (human, UniProt P40200 22-516, biotinylated in Octet and blocking ELISA)
T2 construct: the assays name only hu-CD96; also called hCD96; biotinylated hu-CD96
T2 sequence: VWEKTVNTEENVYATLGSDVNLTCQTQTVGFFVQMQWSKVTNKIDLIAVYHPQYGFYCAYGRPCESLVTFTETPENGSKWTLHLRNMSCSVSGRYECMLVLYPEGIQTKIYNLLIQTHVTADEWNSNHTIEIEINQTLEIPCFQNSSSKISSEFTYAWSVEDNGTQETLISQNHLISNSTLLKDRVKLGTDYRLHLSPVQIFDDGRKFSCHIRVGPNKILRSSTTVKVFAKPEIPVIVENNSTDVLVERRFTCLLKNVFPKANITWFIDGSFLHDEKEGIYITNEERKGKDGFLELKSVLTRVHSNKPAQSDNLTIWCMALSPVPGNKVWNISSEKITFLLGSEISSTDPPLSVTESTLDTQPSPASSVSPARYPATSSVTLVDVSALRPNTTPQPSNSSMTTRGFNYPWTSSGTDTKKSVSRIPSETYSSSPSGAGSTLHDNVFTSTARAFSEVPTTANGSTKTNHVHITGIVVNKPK


These binders were tested against T1, hu-CD96 isoform 1 on HEK293T cells (assay: FACS, Ab 50 nM).
Description: Isoform 1 of hu-CD96 (Origene, catalog #RC213845) was transiently expressed in HEK293T cells following standard lipofectamine or Fugene transfection protocol. […] Cells were washed, and binding was detected by incubation with anti-mouse IgG-FITC (Biolegend, catalog #406001) for 20 minutes at 4° C. Cell binding was analyzed by flow cytometry with a CytoFLEX (Beckman Coulter). Binding curves were calculated as a percentage of cells positive for bound antibody.

% positive [%]	Binder
56.1	10G1 (clone 10G1.3G8), purified hybridoma antibody (antibody, V domains shown, murine hybridoma IgG) VH: QIQLVQSGPELKKPGETVKISCKASGYPFTTYGMSWVKQAPGKGLKWMGWINTDSGVPTYADDFKGRFAFSLETSANTAYLQINSLKNEDAATYFCARNIYYGWGNFDYWGQGTILTVSS VL: DILMTQSPTTLSVTPGETVSLSCRASQDIYRNLHWYQQKSQGTPRLLIKHASDSISGIPSRFTGSGSGTDFTLSINSVKPEDEGIYYCLQGYSMPYTFGGGTKLEIK
52.1	7E5, purified hybridoma antibody (antibody, V domains shown, murine hybridoma IgG) VH: QVQLKESGPGLVAPSQSLSIICTVSGFSLTNYGIHWIRQPPGKGLEWLGIIWAGGSTNYNSALMSRLTISKDNSKSQVFLKMNSLQTNDTAIYYCARVSMMGFAYWGQGTLVTVSA VL: QAVVTQESALTTSPGETVTLTCRSSTGAVTTSNYANWVQEKPDHLFTGLIGGTNNRAPGVPARFSGSLIGDKAALTITGAQTEDEAIYFCSLWYGSHWVFGGGTKLTVL
61	mAb1.v7 IgG (humanized 12F8) (antibody, V domains shown, human IgG1 N297G) VH: EVQLVQSGAEVKKPGASVKVSCKASGFTFTNNWMHWVRQAPGQGLEWIGMIHPNSGITNINEKFKNRVTMTTDTSTSTAYMELRSLRSEDTAVYYCRSDGTYEGYFDYWGQGTLVTVSS VL: DIQLTQSPSSLSASVGDRVTITCKASQNVGTAIVWYQQKPGKAPKVLIYSASTRYTGVPSRFSGSGSGTDFTLTISSLQPEDFATYYCQQYSSSPLTFGQGTKVEIKG
57.8	9H4, purified hybridoma antibody (antibody, V domains shown, murine hybridoma IgG) VH: EVQLLETGGGLVKSGGSLKLSCAASGFTFSDYYMYWVRQTPEKRLEWVAAISDDGTYTYYPDSVKGRFTISRDNANNYLYLQMSSLKSEDTAIYYCAKAGSYDYFDVWGAGTTVTVSS VL: DIVLTQSPASLAVSLGQRAIISCKASQSVTFADTGLMHWYQQKPGQQPKLLIYRASNLEVGVPTRFSGSGSGTDFTLNIHPVEEEDVATYYCQQSREYPWTFGGGTKLEIK

The binders below were run against T2, hu-CD96 (soluble, isoform 2 …) (assay: phage competition ELISA, soluble CD96 vs coated hu-CD96).
Description: 192 colonies from most stringent selections (biotinylated 0.1 nM of hu-CD96 or cy-CD96 with 1000× non-biotinylated human or cy-CD96) were grown in 400 µL 2YT with 4 µL helper phage M13KO7 overnight at 37° C. with shaking. After spinning down the pellet, the phage supernatant was diluted 1:1 with 2 nM hu-CD96, 20 nM cy-CD96 and ELISA buffer (0.5% BSA and 0.05% TWEEN®20 in PBS) in total […] and incubated for two hours at room temperature with agitation. The […] of mixture was transferred to hu-CD96 coated plate for 15 min to capture unbound phage. The plate was washed with wash buffer (0.05% TWEEN®20 in PBS), and HRP-conjugated anti-M13 antibody (Sino biological, Cat #11973-MM05-H-50) was added in ELISA buffer for 30 min. […] Enzymatic color development was stopped using TMB stop solution (VWR, Cat #95059-200). Plates were analyzed with a SpectraMax i3X plate reader (Molecular Devices). The % inhibition was calculated by the $OD450$ of wells with hu-CD96/cy-CD96 competitor divided by $OD450$ of wells with buffer alone. The lower % inhibition indicated higher phage $IC50$ against hu-CD96 or cy-CD96.
Selected top inhibition % phage variants from single spot competition were purified from culture supernatants. The optimal phage concentration was incubated with serially-diluted hu-CD96 or cy-CD96 in ELISA buffer in NUNC F plate for two hours. The […] of the mixture was transferred to hu-CD96 coated wells for 15 min to capture unbound phage. The plate was washed with wash buffer (0.05% TWEEN®20 in PBS), and HRP-conjugated anti-M13 antibody (Sino biological, Cat #11973-MM05-H-50) was added in ELISA buffer for 30 min. The plates were washed and developed as described above. The absorbance at 450 nm was plotted as a function of antigen concentration in solution to determine phage $IC50$.

apparent IC50 (pooled screen) [nM]	IC50 [nM]	Binder
0.5	–	mAb1.v7 Fab (Fab, V domains shown) VH: EVQLVQSGAEVKKPGASVKVSCKASGFTFTNNWMHWVRQAPGQGLEWIGMIHPNSGITNINEKFKNRVTMTTDTSTSTAYMELRSLRSEDTAVYYCRSDGTYEGYFDYWGQGTLVTVSS VL: DIQLTQSPSSLSASVGDRVTITCKASQNVGTAIVWYQQKPGKAPKVLIYSASTRYTGVPSRFSGSGSGTDFTLTISSLQPEDFATYYCQQYSSSPLTFGQGTKVEIK
–	0.08	mAb1.v7.2 Fab (Fab, V domains shown, also called M34R/P52aF/T97V) VH: EVQLVQSGAEVKKPGASVKVSCKASGFTFTNNWRHWVRQAPGQGLEWIGMIHFNSGITNINEKFKNRVTMTTDTSTSTAYMELRSLRSEDTAVYYCRSDGVYEGYFDYWGQGTLVTVSS VL: DIQLTQSPSSLSASVGDRVTITCKASQNVGTAIVWYQQKPGKAPKVLIYSASTRYTGVPSRFSGSGSGTDFTLTISSLQPEDFATYYCQQYSSSPLTFGQGTKVEIK
–	0.1	mAb1.v7.48 Fab (Fab, V domains shown, also called N32R/P52aH/T97V) VH: EVQLVQSGAEVKKPGASVKVSCKASGFTFTNRWMHWVRQAPGQGLEWIGMIHHNSGITNINEKFKNRVTMTTDTSTSTAYMELRSLRSEDTAVYYCRSDGVYEGYFDYWGQGTLVTVSS VL: DIQLTQSPSSLSASVGDRVTITCKASQNVGTAIVWYQQKPGKAPKVLIYSASTRYTGVPSRFSGSGSGTDFTLTISSLQPEDFATYYCQQYSSSPLTFGQGTKVEIK
–	0.1	mAb1.v7.16 Fab (Fab, V domains shown, also called M34R/T97V) VH: EVQLVQSGAEVKKPGASVKVSCKASGFTFTNNWRHWVRQAPGQGLEWIGMIHPNSGITNINEKFKNRVTMTTDTSTSTAYMELRSLRSEDTAVYYCRSDGVYEGYFDYWGQGTLVTVSS VL: DIQLTQSPSSLSASVGDRVTITCKASQNVGTAIVWYQQKPGKAPKVLIYSASTRYTGVPSRFSGSGSGTDFTLTISSLQPEDFATYYCQQYSSSPLTFGQGTKVEIK
–	0.11	mAb1.v7.9 Fab (Fab, V domains shown, also called M34R/P52aM/T97V) VH: EVQLVQSGAEVKKPGASVKVSCKASGFTFTNNWRHWVRQAPGQGLEWIGMIHMNSGITNINEKFKNRVTMTTDTSTSTAYMELRSLRSEDTAVYYCRSDGVYEGYFDYWGQGTLVTVSS VL: DIQLTQSPSSLSASVGDRVTITCKASQNVGTAIVWYQQKPGKAPKVLIYSASTRYTGVPSRFSGSGSGTDFTLTISSLQPEDFATYYCQQYSSSPLTFGQGTKVEIK
–	0.14	mAb1.v7.70 Fab (Fab, V domains shown, also called N32R/P52aA/T97V) VH: EVQLVQSGAEVKKPGASVKVSCKASGFTFTNRWMHWVRQAPGQGLEWIGMIHANSGITNINEKFKNRVTMTTDTSTSTAYMELRSLRSEDTAVYYCRSDGVYEGYFDYWGQGTLVTVSS VL: DIQLTQSPSSLSASVGDRVTITCKASQNVGTAIVWYQQKPGKAPKVLIYSASTRYTGVPSRFSGSGSGTDFTLTISSLQPEDFATYYCQQYSSSPLTFGQGTKVEIK
